Results from patent US20250304667A1 (ALLERGAN, published 2025).
Changes are numbered by the printed parent chain. Read-outs that look alike come from different tables or passages of the source.

Columns and labels:
[1] = target: Soluble C5b-9 (CompTech, A127) (UniProt P01031); assay: BLI (Octet), antibody amine-coupled to AR2G tips, soluble C5b-9 at 30 ug/ml, 300 s association (Example 8)
[2] = target: insoluble C5b-9 complex deposited on IgM-coated ELISA plates after complement activation of normal human serum (human) (UniProt P01031); assay: ELISA on C5b-9 deposited on IgM-coated plates from 2% normal human serum, anti-mouse HRP, Abs 450nm (Example 7)
[3] = target: Soluble C5b-9 (CompTech, A127) (UniProt P01031); assay: BLI (Octet), antibody amine-coupled to AR2G tips, soluble C5b-9 at 30 ug/ml, 300 s association (Example 8); remark: listed apart in the source
[4] = target: T1, human complement Component 5 (C5) (human, UniProt P01031 19-1676, limits assumed); assay: cell-based or functional assay
T1 sequence (P01031 19-1676 limits assumed): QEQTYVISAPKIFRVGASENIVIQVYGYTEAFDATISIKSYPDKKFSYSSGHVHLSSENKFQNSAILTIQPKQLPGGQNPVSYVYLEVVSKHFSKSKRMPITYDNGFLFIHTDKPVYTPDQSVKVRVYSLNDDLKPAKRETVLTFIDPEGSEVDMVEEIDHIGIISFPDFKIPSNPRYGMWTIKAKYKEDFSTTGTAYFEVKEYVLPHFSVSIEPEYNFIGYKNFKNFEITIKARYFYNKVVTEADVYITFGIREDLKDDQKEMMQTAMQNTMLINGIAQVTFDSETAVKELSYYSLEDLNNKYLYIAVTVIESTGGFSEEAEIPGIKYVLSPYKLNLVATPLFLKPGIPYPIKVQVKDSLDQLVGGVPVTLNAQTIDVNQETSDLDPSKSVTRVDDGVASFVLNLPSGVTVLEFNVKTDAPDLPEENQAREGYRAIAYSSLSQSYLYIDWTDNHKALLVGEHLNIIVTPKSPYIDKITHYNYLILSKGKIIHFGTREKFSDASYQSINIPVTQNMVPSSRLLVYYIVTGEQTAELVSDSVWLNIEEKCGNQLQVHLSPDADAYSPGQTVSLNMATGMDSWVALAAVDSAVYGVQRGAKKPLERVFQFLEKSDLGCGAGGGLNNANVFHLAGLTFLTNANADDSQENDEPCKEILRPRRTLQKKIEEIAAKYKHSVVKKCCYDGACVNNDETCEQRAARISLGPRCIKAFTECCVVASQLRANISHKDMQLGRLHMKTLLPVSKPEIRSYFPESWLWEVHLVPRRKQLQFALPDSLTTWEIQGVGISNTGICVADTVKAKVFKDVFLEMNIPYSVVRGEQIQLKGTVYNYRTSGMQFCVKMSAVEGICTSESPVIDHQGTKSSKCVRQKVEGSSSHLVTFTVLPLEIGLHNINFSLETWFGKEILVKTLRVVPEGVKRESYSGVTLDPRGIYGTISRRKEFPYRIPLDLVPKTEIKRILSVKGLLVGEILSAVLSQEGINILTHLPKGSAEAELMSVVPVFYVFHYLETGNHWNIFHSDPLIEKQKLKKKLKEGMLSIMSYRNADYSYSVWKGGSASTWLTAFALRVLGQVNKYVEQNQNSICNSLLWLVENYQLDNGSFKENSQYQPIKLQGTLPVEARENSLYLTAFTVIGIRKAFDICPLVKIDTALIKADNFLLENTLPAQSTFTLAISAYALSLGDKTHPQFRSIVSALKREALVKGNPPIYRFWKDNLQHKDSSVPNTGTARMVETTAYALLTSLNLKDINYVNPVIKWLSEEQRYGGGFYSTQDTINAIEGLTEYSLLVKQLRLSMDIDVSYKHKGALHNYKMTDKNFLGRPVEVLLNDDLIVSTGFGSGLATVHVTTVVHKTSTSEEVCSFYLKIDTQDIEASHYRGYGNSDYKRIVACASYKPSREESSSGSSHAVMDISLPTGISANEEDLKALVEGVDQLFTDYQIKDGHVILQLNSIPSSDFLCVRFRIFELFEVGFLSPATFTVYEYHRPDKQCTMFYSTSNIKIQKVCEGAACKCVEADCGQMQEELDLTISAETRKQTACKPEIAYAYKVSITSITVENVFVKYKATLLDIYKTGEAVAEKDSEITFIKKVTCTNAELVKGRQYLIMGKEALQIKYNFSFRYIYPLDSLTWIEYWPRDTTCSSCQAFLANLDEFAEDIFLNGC

[5] = target: T1, human complement Component 5 (C5); assay: cell-based or functional assay; remark: listed apart in the source
[6] = target: T1, human complement Component 5 (C5); assay: cell-based or functional assay; remark: listed apart in the source
[7] = target: T1, human complement Component 5 (C5); assay: cell-based or functional assay; remark: listed apart in the source
[8] = target: T1, human complement Component 5 (C5); assay: cell-based or functional assay; remark: listed apart in the source
[9] = target: T1, human complement Component 5 (C5); assay: cell-based or functional assay; remark: listed apart in the source

Molecule “anti-C5b-9 mouse monoclonal antibody (Quidel A239)” has a Displacement @ 300s. [1] of 0.86 nm, an EC50 (read off the curve) [2] of 0.04 µg/mL and a Displacement @ 300s. [3] of 0.67 nm.

B1: H1L3-IgG (antibody, V domains shown)
VH: QVQLVQSGAEVKKPGASVKVSCKASGYTFTDEYMNWVRQAPGQSLEWMGYINPNNGGADYNQKFQGRVTMTVDQSISTAYMELSRLRSDDTAVYFCARLGYSNPYFDFWGQGTLVTVSS
VL: DIVLTQSPSFLSASVGDRVTITCQASQDVNTAVAWYLQKPGKSPKLLIYWASTRHTGVPARFTGSGSGTDYTLTISSLQPEDFAVYFCQQHHVSPWTFGGGTKVEIK
With B1 the “IC50 (read off the curve), OD (450nM)” value [4] was about 0.5 µg/mL and the “IC50 (read off the curve), % Inhibition” value [5] was about 3 µg/mL.

B2: H5L3-Fab (Fab, V domains shown)
VH: B1 VH with V5K, Q43K
VL: B1 VL
In the case of B2, the “IC50 (read off the curve), OD (450nM)” value [6] is reported as about 0.4 µg/mL and the “IC50 (read off the curve), % Inhibition” value [7] is reported as about 2 µg/mL.

B3: H1L4-IgG (antibody, V domains shown)
VH: B1 VH
VL: B1 VL with S9A, F10T, A13L, V15P, D17E, V19A, I21L, T22S, Q24R, L37Q
For B3, the “IC50 (read off the curve), OD (450nM)” value [4] was about 0.5 µg/mL and the “IC50 (read off the curve), % Inhibition” value [5] was about 3 µg/mL.

B4: H2L1-IgG (antibody, V domains shown)
VH: B1 VH with Q1E, Q43K, M48V, M70I, I76A, R85S, D89E
VL: DIVLTQSPDSLAVSLGERATINCKASQDVNTAVAWYQQKPDQSPKLLIYWASTRHTGVPARFTGSGSGTDYTLTISSLQAEDVAVYFCQQHHVSPWTFGGGTKVEIK
For B4, the “IC50 (read off the curve), % Inhibition” value [5] was about 3 µg/mL.

B5: H5L1-IgG (antibody, V domains shown)
VH: B1 VH with V5K, Q43K
VL: B4 VL
In the case of B5, the “IC50 (read off the curve), % Inhibition” value [5] is reported as about 2 µg/mL and the “IC50 (read off the curve), OD (450nM)” value [8] is reported as about 0.5 µg/mL.

B6: H5L2-IgG (antibody, V domains shown)
VH: B1 VH with V5K, Q43K
VL: B4 VL with D9A, S10T, A12S, V13L, L15P, I21L, N22S, K24R, A80P, V83F
In the case of B6, the “IC50 (read off the curve), % Inhibition” value [5] is reported as about 3 µg/mL and the “IC50 (read off the curve), OD (450nM)” value [8] is reported as about 0.7 µg/mL.

B7: H5L3-IgG (antibody, V domains shown)
VH: B1 VH with V5K, Q43K
VL: B1 VL
In the case of B7, the “IC50 (read off the curve), % Inhibition” value [5] is reported as about 3 µg/mL.

B8: H5L4-IgG (antibody, V domains shown)
VH: B1 VH with V5K, Q43K
VL: B1 VL with S9A, F10T, A13L, V15P, D17E, V19A, I21L, T22S, Q24R, L37Q
For B8, the “IC50 (read off the curve), OD (450nM)” value [4] was about 0.5 µg/mL and the “IC50 (read off the curve), % Inhibition” value [5] was about 3 µg/mL.

B9: H3L2-IgG (antibody, V domains shown)
VH: B1 VH with Q62P, K63S, F64L, Q65K, G66S, M70I, T71S
VL: B4 VL with D9A, S10T, A12S, V13L, L15P, I21L, N22S, K24R, A80P, V83F
With B9 the “IC50 (read off the curve), OD (450nM)” value [8] was about 0.8 µg/mL.

B10: H3L1-IgG (antibody, V domains shown)
VH: B1 VH with Q62P, K63S, F64L, Q65K, G66S, M70I, T71S
VL: B4 VL
B10 was tested, and the “IC50 (read off the curve), OD (450nM)” value [8] was about 0.7 µg/mL.

B11: H2L2-IgG (antibody, V domains shown)
VH: B1 VH with Q1E, Q43K, M48V, M70I, I76A, R85S, D89E
VL: B4 VL with D9A, S10T, A12S, V13L, L15P, I21L, N22S, K24R, A80P, V83F
B11 was tested, and the “IC50 (read off the curve), OD (450nM)” value [8] was about 0.7 µg/mL.

B12: H3L4-IgG (antibody, V domains shown)
VH: B1 VH with Q62P, K63S, F64L, Q65K, G66S, M70I, T71S
VL: B1 VL with S9A, F10T, A13L, V15P, D17E, V19A, I21L, T22S, Q24R, L37Q
B12 was tested, and the “IC50 (read off the curve), OD (450nM)” value [4] was about 0.8 µg/mL.

B13: H3L3-IgG (antibody, V domains shown)
VH: B1 VH with Q62P, K63S, F64L, Q65K, G66S, M70I, T71S
VL: B1 VL
In the case of B13, the “IC50 (read off the curve), OD (450nM)” value [4] is reported as about 0.8 µg/mL.

B14: H1L1-Fab (Fab, V domains shown)
VH: B1 VH
VL: B4 VL
In the case of B14, the “IC50 (read off the curve), % Inhibition” value [7] is reported as about 2 µg/mL and the “IC50 (read off the curve), OD (450nM)” value [9] is reported as about 0.3 µg/mL.

B15: H1L2-Fab (Fab, V domains shown)
VH: B1 VH
VL: B4 VL with D9A, S10T, A12S, V13L, L15P, I21L, N22S, K24R, A80P, V83F
For B15, the “IC50 (read off the curve), % Inhibition” value [7] was about 2 µg/mL and the “IC50 (read off the curve), OD (450nM)” value [9] was about 0.4 µg/mL.

B16: H1L1-IgG (antibody, V domains shown)
VH: B1 VH
VL: B4 VL
In the case of B16, the “IC50 (read off the curve), % Inhibition” value [5] is reported as about 3 µg/mL.

B17: H1L3-Fab (Fab, V domains shown)
VH: B1 VH
VL: B1 VL
B17 was tested, and the “IC50 (read off the curve), % Inhibition” value [7] was about 2 µg/mL.

B18: H1L4-Fab (Fab, V domains shown)
VH: B1 VH
VL: B1 VL with S9A, F10T, A13L, V15P, D17E, V19A, I21L, T22S, Q24R, L37Q
In the case of B18, the “IC50 (read off the curve), OD (450nM)” value [6] is reported as about 0.4 µg/mL and the “IC50 (read off the curve), % Inhibition” value [7] is reported as about 2 µg/mL.

B19: H2L1-Fab (Fab, V domains shown)
VH: B1 VH with Q1E, Q43K, M48V, M70I, I76A, R85S, D89E
VL: B4 VL
In the case of B19, the “IC50 (read off the curve), % Inhibition” value [7] is reported as about 2 µg/mL and the “IC50 (read off the curve), OD (450nM)” value [9] is reported as about 0.5 µg/mL.

B20: H5L1-Fab (Fab, V domains shown)
VH: B1 VH with V5K, Q43K
VL: B4 VL
For B20, the “IC50 (read off the curve), % Inhibition” value [7] was about 2 µg/mL.

B21: H5L2-Fab (Fab, V domains shown)
VH: B1 VH with V5K, Q43K
VL: B4 VL with D9A, S10T, A12S, V13L, L15P, I21L, N22S, K24R, A80P, V83F
B21 was tested, and the “IC50 (read off the curve), % Inhibition” value [7] was about 2 µg/mL and the “IC50 (read off the curve), OD (450nM)” value [9] was about 0.4 µg/mL.

B22: H5L4-Fab (Fab, V domains shown)
VH: B1 VH with V5K, Q43K
VL: B1 VL with S9A, F10T, A13L, V15P, D17E, V19A, I21L, T22S, Q24R, L37Q
B22 was tested, and the “IC50 (read off the curve), OD (450nM)” value [6] was about 0.4 µg/mL and the “IC50 (read off the curve), % Inhibition” value [7] was about 2 µg/mL.

B23: H3L1-Fab (Fab, V domains shown)
VH: B1 VH with Q62P, K63S, F64L, Q65K, G66S, M70I, T71S
VL: B4 VL
In the case of B23, the “IC50 (read off the curve), OD (450nM)” value [9] is reported as about 0.5 µg/mL.

B24: H1L2-IgG (antibody, V domains shown)
VH: B1 VH
VL: B4 VL with D9A, S10T, A12S, V13L, L15P, I21L, N22S, K24R, A80P, V83F
B24 was tested, and the “IC50 (read off the curve), % Inhibition” value [5] was about 3 µg/mL.

B25: H3L2-Fab (Fab, V domains shown)
VH: B1 VH with Q62P, K63S, F64L, Q65K, G66S, M70I, T71S
VL: B4 VL with D9A, S10T, A12S, V13L, L15P, I21L, N22S, K24R, A80P, V83F
In the case of B25, the “IC50 (read off the curve), OD (450nM)” value [9] is reported as about 0.5 µg/mL.

B26: H2L2-Fab (Fab, V domains shown)
VH: B1 VH with Q1E, Q43K, M48V, M70I, I76A, R85S, D89E
VL: B4 VL with D9A, S10T, A12S, V13L, L15P, I21L, N22S, K24R, A80P, V83F
B26 was tested, and the “IC50 (read off the curve), OD (450nM)” value [9] was about 0.5 µg/mL.

B27: H3L3-Fab (Fab, V domains shown)
VH: B1 VH with Q62P, K63S, F64L, Q65K, G66S, M70I, T71S
VL: B1 VL
For B27, the “IC50 (read off the curve), OD (450nM)” value [6] was about 0.5 µg/mL.
